Measured values published in article PMC5889391, “Lipid binding promotes the open conformation and tumor-suppressive activity of neurofibromin 2” (Nature Communications, 2018).

Assays:
[1] = biological target: T1, neurofibromin 2 (full-length, GST-tagged) (Homo sapiens, UniProt P35240, A585W/R588K); assay: microscale thermophoresis; assay type: binding; conditions: 20 mM Tris pH 7.5, 300 mM NaCl, 0.01% Tween-20, room temperature; protein labelled with maleimide NT-647
T1 construct: gene NF2; full-length, residues 1-595, N-terminal GST tag kept (pGEX-6P-1), E. coli BL21(DE3) Rosetta2
T1 sequence (P35240 1-595 A585W/R588K): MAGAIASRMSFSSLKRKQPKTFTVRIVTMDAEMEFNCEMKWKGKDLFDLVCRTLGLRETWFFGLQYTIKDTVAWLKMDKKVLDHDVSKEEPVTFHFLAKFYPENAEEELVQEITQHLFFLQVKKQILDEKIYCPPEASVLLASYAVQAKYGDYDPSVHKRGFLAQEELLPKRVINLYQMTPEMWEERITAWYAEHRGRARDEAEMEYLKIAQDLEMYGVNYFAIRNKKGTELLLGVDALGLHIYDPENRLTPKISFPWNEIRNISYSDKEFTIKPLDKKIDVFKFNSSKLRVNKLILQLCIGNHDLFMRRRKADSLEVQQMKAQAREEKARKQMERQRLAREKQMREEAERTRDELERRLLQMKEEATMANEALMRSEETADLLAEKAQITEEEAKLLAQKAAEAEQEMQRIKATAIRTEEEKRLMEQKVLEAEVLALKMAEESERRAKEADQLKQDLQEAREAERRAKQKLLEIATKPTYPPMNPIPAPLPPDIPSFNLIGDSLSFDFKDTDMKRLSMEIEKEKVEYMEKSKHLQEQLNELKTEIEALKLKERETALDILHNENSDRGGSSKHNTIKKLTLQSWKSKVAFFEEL

[2] = biological target: neurofibromin 2 tail tail (Homo sapiens) (UniProt P35240); conditions: cited from earlier work
[3] = biological target: T2, N terminally GST-tagged full-length neurofibromin 2, wild type (human, UniProt P35240 1-595, labeled with NT-647 red dye (maleimide conjugated cysteine reactive or NHS conjugated lysine reactive)); assay: MST; as a1, but LATS1 69-100 titrated into the neurofibromin 2/PIP2 complex (in the presence of PIP2); conditions: both partners purified
T2 construct: neurofibromin 2 (merlin), human, full length, residues 1-595; also called NF2; merlin; source: E. coli BL21(DE3) Rosetta2, purified (GST column); not shown: GST, N-terminal, kept
T2 sequence (looked up): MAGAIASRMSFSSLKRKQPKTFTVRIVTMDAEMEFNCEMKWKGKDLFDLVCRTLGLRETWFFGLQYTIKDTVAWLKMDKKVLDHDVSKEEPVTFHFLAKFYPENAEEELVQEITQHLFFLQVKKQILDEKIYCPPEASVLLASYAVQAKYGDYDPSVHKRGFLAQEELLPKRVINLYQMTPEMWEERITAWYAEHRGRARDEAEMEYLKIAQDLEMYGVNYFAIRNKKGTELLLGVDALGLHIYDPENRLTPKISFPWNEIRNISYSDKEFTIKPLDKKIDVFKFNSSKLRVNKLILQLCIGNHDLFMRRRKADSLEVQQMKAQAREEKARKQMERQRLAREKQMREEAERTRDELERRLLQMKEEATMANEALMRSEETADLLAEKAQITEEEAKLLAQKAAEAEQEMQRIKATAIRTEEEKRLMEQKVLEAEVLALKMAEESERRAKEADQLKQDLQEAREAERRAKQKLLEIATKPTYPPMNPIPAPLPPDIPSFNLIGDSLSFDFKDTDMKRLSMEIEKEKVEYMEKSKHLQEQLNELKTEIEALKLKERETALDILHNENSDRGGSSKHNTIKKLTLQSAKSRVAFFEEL

[4] = biological target: T2, N terminally GST-tagged full-length …; assay: MST; unlabeled LATS1 69-100 (2 mM) titrated into 5 uM NT-647-labeled GST-neurofibromin 2; 20 mM Tris pH 7.5, 300 mM NaCl, 0.01% Tween-20; room temperature; conditions: both partners purified
[5] = biological target: T3, N terminally GST-tagged full-length neurofibromin 2 lipid binding deficient mutant (T59V, W60E, R309Q, R310Q) (human, UniProt P35240 1-595, T59V | W60E | R309Q | R310Q, labeled with NT-647 red dye (maleimide conjugated cysteine reactive or NHS conjugated lysine reactive)); assay: as above; conditions: both partners purified
T3 construct: neurofibromin 2 (merlin), human, full length, residues 1-595, with four point mutations; Cloned into pGEX-6P-1; also called LBD; source: E. coli BL21(DE3) Rosetta2, purified (GST column); not shown: GST, N-terminal, kept
T3 sequence (looked up): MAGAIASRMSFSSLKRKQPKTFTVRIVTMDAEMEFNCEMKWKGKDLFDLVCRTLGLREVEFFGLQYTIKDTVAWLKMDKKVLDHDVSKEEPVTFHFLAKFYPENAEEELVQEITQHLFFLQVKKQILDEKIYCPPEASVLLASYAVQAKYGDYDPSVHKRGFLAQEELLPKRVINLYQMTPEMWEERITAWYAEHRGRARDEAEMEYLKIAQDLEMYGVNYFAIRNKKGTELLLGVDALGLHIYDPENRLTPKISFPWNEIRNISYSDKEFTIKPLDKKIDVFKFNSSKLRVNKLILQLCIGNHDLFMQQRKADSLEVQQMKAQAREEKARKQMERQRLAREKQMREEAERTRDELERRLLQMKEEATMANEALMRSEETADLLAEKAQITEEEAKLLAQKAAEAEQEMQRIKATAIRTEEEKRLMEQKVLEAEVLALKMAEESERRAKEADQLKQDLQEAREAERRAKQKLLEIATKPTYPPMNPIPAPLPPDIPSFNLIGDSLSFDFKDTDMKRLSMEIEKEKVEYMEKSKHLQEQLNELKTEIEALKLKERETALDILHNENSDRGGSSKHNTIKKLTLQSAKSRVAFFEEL

CCCCCCCC(=O)OC[C@H](COP(=O)(O)O[C@@H]1[C@H](O)[C@H](O)[C@@H](OP(=O)(O)O)[C@H](OP(=O)(O)O)[C@H]1O)OC(=O)CCCCCCC [PIP2diC8]
microscale thermophoresis [1]: No binding was observed for the artificially closed A585W-R588K (AR) mutants to h PIP2

neurofibromin 2 head head (from UniProt P35240)
Kd [2]: 3 µM

B1: LATS1 (residues 69-100) (domain or fragment, UniProt O95835 69-100, looked up)
chain: PKFGTHHKALQEIRNSLLPFANETNSSRSTSE
notes: Hippo pathway kinase LATS1, residues 69-100; it was unlabeled; also called LATS1 kinase; LAST1 residues 69-100
Kd [3]: 3.77 ± 0.72 µM
Kd [4]: 39.3 ± 4.25 µM
Kd [5]: 176 ± 34.5 µM
